Data from patent US5906819.

Legend:
[1] = molecular target: T1, myosin light chain (chicken) (UniProt P02612)
T1 sequence: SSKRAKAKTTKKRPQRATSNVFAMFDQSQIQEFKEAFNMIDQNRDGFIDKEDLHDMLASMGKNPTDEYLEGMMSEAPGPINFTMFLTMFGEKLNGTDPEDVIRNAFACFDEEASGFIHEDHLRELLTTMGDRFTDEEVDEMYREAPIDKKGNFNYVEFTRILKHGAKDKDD

phosphorylation of intact myosin (mol phosphorylation per 1 mol myosin) (intact myosin (chicken)): 1
specific activity with S6 peptide as a substrate (mol per minute per 1 mol GST-Rho-kinase) (S6 peptide): 41
apparent Km for myosin light chain [1]: 0.91 µM
B1: GST-Rho-kinase (enzyme)
chain: PTGKMPGAPEAVSGDGAGASRQRKLEALIRDPRSPINVESLLDGLNPLVLDLDFPALRKNKNIDNFLNRYEKIVKKIRGLQMKAEDYDVVKVIGRGAFGEVQLVRHKASQKVYAMKLLSKFEMIKRSDSAFFWEERDIMAFANSPWVVQLFCAFQDDKYLYMVMEYMPGGDLVNLMSNYDVPEKWAKFYTAEVVLALDAIHSMGLIHRDVKPDNMLLDKHGHLKLADFGTCMKMDETGMVHCDTAVGTPDYISPEVLKSQGGDGYYGRECDWWSVGVFLFEMLVGDTPFYADSLVGTYSKIMDHKNSLCFPEDAEISKHAKNLICAFLTDREVRLGRNGVEEIKQHPFFKNDQWNWDNIRETAAPVVPELSSDIDSSNFDDIEDDKGDVETFPIPKAFVGNQLPFIGFTYYRENLLLSDSPSCKENDSIQSRKNEESQEIQKKLYTLEEHLSTEIQAKEELEQKCKSVNTRLEKVAKELEEEITLRKNVESTLRQLEREKALLQHKNAEYQRKADHEADKKRNLENDVNSLKDQLEDLKKRNQNSQIS
